Experimental data taken from US20250019680.

Assays:
[1] = system: dRBD #3L (LwaCas13a with hnRNP A1 RRM2 98-196 inserted between N415 and N416, catalytically inactive HEPN2) R1046A/H1051A (LwaCas13a numbering) (Leptotrichia wadei / Homo sapiens); experiment: EMSA
[2] = system: dRBD #4L (LwaCas13a with hnRNP C RRM 2-106 inserted between N415 and N416, catalytically inactive HEPN2) R1046A/H1051A (LwaCas13a numbering) (Leptotrichia wadei / Homo sapiens); experiment: EMSA
[3] = system: RBD #2L LwaCas13a (hnRNP A1 1-104 in Loop 1) (Leptotrichia wadei / Homo sapiens); experiment: cleavage_in_vitro; settings: collateral cleavage of RNaseAlert
[4] = system: RBD #3L LwaCas13a (Leptotrichia wadei / Homo sapiens); experiment: cleavage_in_vitro; settings: collateral cleavage of RNaseAlert
[5] = system: RBD #4L LwaCas13a (Leptotrichia wadei / Homo sapiens); experiment: cleavage_in_vitro; settings: collateral cleavage of RNaseAlert
[6] = system: T1, RBD #6L LwaCas13a (ADAR1 126-202 in Loop 1) (Leptotrichia wadei / Homo sapiens); experiment: cleavage_in_vitro; settings: collateral cleavage of RNaseAlert
T1 sequence: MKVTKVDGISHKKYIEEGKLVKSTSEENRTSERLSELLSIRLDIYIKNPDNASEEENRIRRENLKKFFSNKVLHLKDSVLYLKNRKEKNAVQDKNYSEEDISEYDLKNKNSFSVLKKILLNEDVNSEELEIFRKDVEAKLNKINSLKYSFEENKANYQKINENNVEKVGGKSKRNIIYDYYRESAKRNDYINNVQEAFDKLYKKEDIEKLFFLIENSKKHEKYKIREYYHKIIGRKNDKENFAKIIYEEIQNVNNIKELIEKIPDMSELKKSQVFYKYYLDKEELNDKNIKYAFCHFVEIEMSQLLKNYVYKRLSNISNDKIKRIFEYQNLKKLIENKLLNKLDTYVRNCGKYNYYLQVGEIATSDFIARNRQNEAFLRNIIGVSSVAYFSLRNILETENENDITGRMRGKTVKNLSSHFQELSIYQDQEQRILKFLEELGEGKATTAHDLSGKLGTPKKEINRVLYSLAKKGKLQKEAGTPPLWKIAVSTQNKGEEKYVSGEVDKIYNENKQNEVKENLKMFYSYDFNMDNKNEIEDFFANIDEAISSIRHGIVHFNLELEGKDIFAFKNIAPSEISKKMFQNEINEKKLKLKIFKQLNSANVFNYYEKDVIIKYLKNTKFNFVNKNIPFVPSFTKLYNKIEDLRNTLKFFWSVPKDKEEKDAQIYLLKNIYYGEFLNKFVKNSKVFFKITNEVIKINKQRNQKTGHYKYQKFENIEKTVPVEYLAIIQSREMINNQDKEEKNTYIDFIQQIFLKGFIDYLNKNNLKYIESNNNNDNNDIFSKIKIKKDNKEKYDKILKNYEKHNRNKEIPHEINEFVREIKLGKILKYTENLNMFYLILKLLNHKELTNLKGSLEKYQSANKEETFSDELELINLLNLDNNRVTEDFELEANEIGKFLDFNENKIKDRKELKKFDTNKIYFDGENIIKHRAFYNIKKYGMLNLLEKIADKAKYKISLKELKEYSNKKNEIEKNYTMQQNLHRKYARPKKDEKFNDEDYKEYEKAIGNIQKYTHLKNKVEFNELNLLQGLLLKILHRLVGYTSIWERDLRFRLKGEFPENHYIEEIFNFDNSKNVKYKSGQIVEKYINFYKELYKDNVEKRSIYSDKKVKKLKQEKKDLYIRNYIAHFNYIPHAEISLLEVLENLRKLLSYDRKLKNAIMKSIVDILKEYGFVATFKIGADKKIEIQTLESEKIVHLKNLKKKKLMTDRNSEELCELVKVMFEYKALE

[7] = crRNA complex, 50 mM Tris pH 8.0, 60 mM NaCl, 5 mM MgCl2, 37 C
[8] = crRNA complex, 5 mM MgCl2, 37 C
[9] = collateral reporter binding by cr1/T1-bound complex, pH 7.5, 5 mM MgCl2, 0.01% Triton X-100

In the case of “GACUACCCCAAAAACGAAGGGGACUAAAACAAUCUGAGGGUCCACCAAACGUAAUGCG / ACCCCGCAUUACGUUUGGUGGACCCUCAGAUUCAAC [cr1_N crRNA ; T26_N_2 target (36 nt)]”, the Kd [1, 7] is reported as 23 nM and the Kd [2, 7] is reported as 18 nM.

“GACUACCCCAAAAACGAAGGGGACUAAAACAAUCUGAGGGUCCACCAAACGUAAUGCG / GUCUGAUAAUGGACCCCAAAAUCAGCGAAAUGCACCCCGCAUUACGUUUGGUGGACCCUCAGAUUCAACUGGCAGUAACCAGAAUGGAGAACGCAGUGGGGCGCG [cr1_N crRNA ; T1_N target (105 nt)]” was tested, and the Kd [1, 8] was 12 nM and the Kd [2, 8] was 11 nM.

For “GACUACCCCAAAAACGAAGGGGACUAAAACUCACUCAAUACUUGAGCACACUCAUUAG / GUGAUAGAGCCAUGCCUAACAUGCUUAGAAUUAUGGCCUCACUUGUUCUUGCUCGCAAACAUACAACGUGUUGUAGCUUGUCACACCGUUUCUAUAGAUUAGCUAAUGAGUGUGCUCAAGUAUUGAGUGAAAUGGUCAUGUGUGGCGGUUCACUAUAUGUUAAACCAGGUGGAACCUCAUCAGGAGAUGCCACAACUGCUUAUGCUAAUAGUGUUUUUAACAUUUGU [cr2_RdRp crRNA ; T2_RdRp target]”, the binding signal (% higher than WT) [3] was 164, the binding signal (% higher than WT) [4] was 264 and the binding signal (% higher than WT) [5] was 241. The binding signal (% higher than WT) [6] was 171.

For UUUUUUUUUUUUUUUUUUUU [U20 reporter], the Kd [1, 9] was 230 nM and the Kd [2, 9] was 150 nM.
